Test results published in article PMC9825174.

Legend:
Test in all cases: EMSA
[1] = target: UV-DDB (DDB1-DDB2 heterodimer) (UniProt Q16531+Q92466); conditions: EMSA: 20 mM HEPES pH 7.5, 150 mM NaCl, 2 mM DTT (5 mM in AAG native PAGE), 5% glycerol, 0.5 mg/ml BSA, 8 nM DNA, room temperature 20-30 min, 5% native gel at …
AAG WT (MPG) = AAG WT (MPG) (UniProt P29372); conditions: 60 nM AAG, 8 nM DNA, N20 of strand 1 = tetrahydrofuran abasic analogue (opposite T), EMSA: 20 mM HEPES pH 7.5, 150 mM NaCl, 2 mM DTT (5 mM in AAG native PAGE), 5% glycerol, 0.5 mg/ml BSA, room temperature 20-30 min, 5% native gel at …
[2] = target: AAG D80 EQ (catalytically dead) E125Q (UniProt P29372); conditions: 60 nM AAG D80 EQ, 8 nM DNA, text says THF, legend says ϵdA37, N20 of strand 1 = 1,N6-ethenoadenine (opposite T), EMSA: 20 mM HEPES pH 7.5, 150 mM NaCl, 2 mM DTT (5 mM in AAG native PAGE), 5% glycerol, 0.5 mg/ml BSA, room temperature 20-30 min, 5% native gel at …

Chain of UniProt Q16531 (Q16531 whole entry, chain 1 of 2): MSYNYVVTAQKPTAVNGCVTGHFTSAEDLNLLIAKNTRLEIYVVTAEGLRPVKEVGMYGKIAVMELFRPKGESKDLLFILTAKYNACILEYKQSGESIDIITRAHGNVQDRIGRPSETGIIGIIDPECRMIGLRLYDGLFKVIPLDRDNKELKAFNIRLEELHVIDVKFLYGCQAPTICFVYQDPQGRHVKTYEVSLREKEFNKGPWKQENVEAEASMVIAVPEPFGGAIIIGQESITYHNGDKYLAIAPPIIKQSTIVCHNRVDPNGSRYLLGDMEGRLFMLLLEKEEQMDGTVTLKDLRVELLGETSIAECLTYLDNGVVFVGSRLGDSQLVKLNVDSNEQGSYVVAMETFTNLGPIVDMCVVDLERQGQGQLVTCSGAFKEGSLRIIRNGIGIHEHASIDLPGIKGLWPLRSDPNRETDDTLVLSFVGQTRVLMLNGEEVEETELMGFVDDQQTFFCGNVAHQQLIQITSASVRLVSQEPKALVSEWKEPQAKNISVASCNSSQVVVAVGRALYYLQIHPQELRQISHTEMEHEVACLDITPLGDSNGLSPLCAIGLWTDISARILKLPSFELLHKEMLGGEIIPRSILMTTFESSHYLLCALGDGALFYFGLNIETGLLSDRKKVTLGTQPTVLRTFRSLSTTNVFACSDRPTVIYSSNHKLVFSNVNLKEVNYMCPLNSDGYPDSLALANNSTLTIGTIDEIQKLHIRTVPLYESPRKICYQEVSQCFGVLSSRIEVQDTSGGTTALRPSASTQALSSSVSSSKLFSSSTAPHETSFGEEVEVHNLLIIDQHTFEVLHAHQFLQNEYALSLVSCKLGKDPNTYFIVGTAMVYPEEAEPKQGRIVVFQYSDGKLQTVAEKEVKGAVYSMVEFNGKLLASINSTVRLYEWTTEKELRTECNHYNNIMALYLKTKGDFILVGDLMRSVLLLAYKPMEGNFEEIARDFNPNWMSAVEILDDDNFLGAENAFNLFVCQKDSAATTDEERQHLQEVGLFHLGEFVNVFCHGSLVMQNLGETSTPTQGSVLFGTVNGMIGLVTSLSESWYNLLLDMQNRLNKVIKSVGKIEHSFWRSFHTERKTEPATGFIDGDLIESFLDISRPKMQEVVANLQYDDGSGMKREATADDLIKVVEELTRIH
Chain of UniProt Q16531 (Q92466 whole entry, chain 2 of 2): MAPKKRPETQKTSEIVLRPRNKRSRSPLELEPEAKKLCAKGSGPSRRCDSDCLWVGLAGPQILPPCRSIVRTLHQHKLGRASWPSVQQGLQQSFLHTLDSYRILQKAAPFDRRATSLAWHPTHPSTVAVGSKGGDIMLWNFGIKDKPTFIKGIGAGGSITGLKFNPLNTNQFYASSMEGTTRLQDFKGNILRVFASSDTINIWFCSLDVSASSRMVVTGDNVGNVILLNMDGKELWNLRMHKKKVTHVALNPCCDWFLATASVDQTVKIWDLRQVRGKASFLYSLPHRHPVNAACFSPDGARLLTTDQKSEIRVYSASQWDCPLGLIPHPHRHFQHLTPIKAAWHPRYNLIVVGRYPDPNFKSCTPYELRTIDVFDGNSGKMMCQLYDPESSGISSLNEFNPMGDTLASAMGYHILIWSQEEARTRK

“CCGAGTCATTCCTGCAGCGNGTCCATGGGAGTCAAAT / ATTTGACTCCCATGGACTCGCTGCAGGAATGACTCGG [Hx37 (Hx:T)]” showed a Kd ([1]; N20 of strand 1 = hypoxanthine (deoxyinosine, opposite T)) of 8.6 nM.

“CCGAGTCATTCCTGCAGCGNGTCCATGGGAGTCAAAT / ATTTGACTCCCATGGACTCGCTGCAGGAATGACTCGG [THF37]” gave a binding signal (AAG WT (MPG)) greater than 85 % DNA bound and a Kd ([1]; N20 of strand 1 = tetrahydrofuran abasic analogue (opposite T)) of 1.8 nM.

For “CCGAGTCATTCCTGCAGCGNGTCCATGGGAGTCAAAT / ATTTGACTCCCATGGACTCGCTGCAGGAATGACTCGG [ϵdA37 (ϵA:T)]”, the binding signal [2] was greater than 85 % DNA bound and the Kd ([1]; N20 of strand 1 = 1,N6-ethenoadenine (opposite T)) was 6 nM.

undamaged 37 bp duplex (UD) was tested, and the Kd ([1]; no Mg2+, varies with preparation (32-42 nM)) was 31.8 nM.
